Consider 167 variants from the RNAGym collection of RNA variant scans (doi:10.7554/elife.90254).

B1: LINE1-full (parent)
chain: UACGUAGGUGGUUUUCCCCUGAUAGUGCUAAGGGGGCCUGGAAGUUUGGACUGGGCAGAGCUCAACACAGCGUGGCAAAGUGGCUGUGGCUAGACUGCCUCUCUGGAUUCCUCGUCACUCAGCAGGGCAUCUCUGAGAGAAAUGCC

In the data set the parent is B1. Nature of the data set: self-cleavage, relative activity (ratio to wild type); higher = more cleavage; in vitro, sequencing; the parent is a self-cleaving ribozyme.
For the variant A30U U108C, the self-cleavage was 0.41.
With G32A U108C, the self-cleavage amounted to 0.76.
Then U29G A141U, with 0.35; and G32A U104A, with 1.17; and A31G U112C, with 1.3.
Consider A30U G58A, for which the self-cleavage was determined as 0.18.
In the case of A31C U134C it was 1; in that of A30G U87A, 0.16.
In the case of A30G G55U it was 0.79.
In the case of U29G A57G it was 0.51; in that of G32C U85C, 0.27.
Consider G32U G55A, for which the self-cleavage worked out at 0.18.
Then A31U U62C, with 0.12; and A31G C113U, with 1.03.
Then G32A U130C, with 1.26; and A30G A59G, with 0.11; and A31U U115C, with 1.32.
In the case of A31U U115G it was 0.37; in that of A31G A77U, 0.86; in that of A30G A50G, 0.64.
For A30G A50U, the self-cleavage is 0.89.
On to A31G U108C, for which the self-cleavage was 1.26.
In the case of A30G G70U it was 0.11; in that of A31G A129U, 0.84.
With A30U G144A, the self-cleavage was 0.75.
In the case of A30G U108C it was 0.5.
In the case of A30U U134C it was 1.22.
In the case of G32U A65G it was 0.12; in that of G32U U96C, 0.08; in that of A31G G139A, 1.19.
A31G G139U: the self-cleavage is 1.67.
Then A30U U143A, with 0.77.
For the variant G32U C113U, the self-cleavage is 0.49.
Then G32U C113A, with 0.96.
In the case of A30U A77G it was 1.25; in that of G32U U100C, 2.02; in that of A31G U39A, 0.49.
In the case of A31G U39G it was 1.37.
U29G U112C: the self-cleavage was found to be 1.36.
In the case of A31G U132C it was 0.85; in that of A30U A107G, 1.28; in that of G32U U132A, 1.2.
Then A30G A42G, with 0.9.
Then A30G A42C, with 0.59; and A31U A124G, with 1.09.
In the case of A31U A124U, the self-cleavage was determined as 1.42.
In the case of G32C G33U, the self-cleavage stood at 1.02.
Regarding A30G C146U, the self-cleavage worked out at 0.92.
In the case of A30G G74A it was 0.56.
For G32A G122A, the self-cleavage turned out to be 2.13.
In the case of A31U U130C, the self-cleavage amounted to 1.23.
In the case of G32U A67U it was 0.13; in that of G32A A59G, 0.02.
Then A30G C145G, with 0.47.
Then A31G U104A, with 0.48.
In the case of A31C A78G, the self-cleavage was 1.1.
In the case of A31U U47C it was 1.08; in that of A31G G125U, 0.96; in that of A31G U134A, 0.45.
Then A31G U134C, with 1.53; and A31G G72A, with 0.77.
Then A31G U102C, with 0.35.
A30G A64C: the self-cleavage stood at 0.31.
In the case of A30G A64U it was 0.65.
As to A31G U87C, the self-cleavage was 0.22.
Then G33A A59G, with 0.12; and G32C A117G, with 1.53; and U29G A124G, with 0.44.
Take A31G U143C: the self-cleavage came to 1.04.
Turning to G32U U73A, the self-cleavage worked out at 0.89.
Then U29G, with 1.1; and A30G U62C, with 0.13; and A30G U62A, with 0.04.
Then A30G A57G, with 1.39; and A30G U112C, with 0.96.
In the case of A30G U112A it was 1.1; in that of U29G U104A, 1.6.
A31G U81C: the self-cleavage was found to be 0.69.
Consider A31G U81A, for which the self-cleavage was found to be 0.66.
For the variant A30U A79C, the self-cleavage turned out to be 1.19.
Then A31G A124U, with 1.3; and G32A A64U, with 0.36; and G32A A64G, with 0.24.
Then U29C U143A, with 1.17; and G32A U119A, with 1.1; and G32A U96A, with 0.05.
Take A31U A57G: the self-cleavage is 1.
Then A30C U112C, with 1.33; and G32A A69U, with 0.02; and G32A A69G, with 0.37.
For A31G A138G, the self-cleavage is 0.86.
Regarding U29G U108C, the self-cleavage came out at 0.54.
In the case of G32C U87A it was 0.06; in that of G32A C128A, 0.61.
As for A30U A31U, the self-cleavage worked out at 1.3.
Then A30U A31G, with 1.23; and A30U A92G, with 0.11.
Then A30G A43U, with 1.5; and A30G C99A, with 0.61.
In the case of G32A G83U it was 0.83.
As to A30G A107G, the self-cleavage was found to be 1.2.
In the case of A30G A107U it was 1.71; in that of A30U A94G, 0.55; in that of A30G C123A, 1.
Then G32A A129G, with 0.93; and G32A A129U, with 1.15.
Then A30G A124G, with 0.91; and A30U U112C, with 1.08; and A31U A77G, with 1.39.
A30C A107G: the self-cleavage worked out at 2.06.
In the case of A31U A107G it was 1.28; in that of A31U U109A, 1.69; in that of A31U U109C, 1.17.
Then A31U U104A, with 1.15.
Consider A31U U81A, for which the self-cleavage came to 1.57.
With A31C, the self-cleavage came out at 1.43.
In the case of A31U it was 1.03; in that of A31G, 1.11; in that of A30U G125U, 1.17.
In the case of A31U G126U it was 0.79; in that of G32A A138U, 0.89.
For A31G U47C, the self-cleavage was determined as 0.79.
As to A31G U47A, the self-cleavage came out at 0.94.
In the case of G32A A94C it was 0.04; in that of U29G G137U, 1.04; in that of A30G U119A, 1.01.
In the case of A30G U119C it was 1.45; in that of A31G C98A, 0; in that of A30U A141G, 0.87.
Then A30C A57G, with 0.52; and U29C U134A, with 0.89.
As to U29C U134C, the self-cleavage amounted to 1.37.
In the case of G32A U100C it was 1.34; in that of G32A U100A, 0.74.
In the case of A30G U85G it was 0.17; in that of A30G U85A, 0.32; in that of G32A G86U, 0.12.
Then A30U A69U, with 0.1.
With G32A A57G, the self-cleavage was found to be 1.37.
In the case of A31G U130G it was 1.84; in that of G32A G55U, 0.32.
On to A30U U104A, for which the self-cleavage was 1.93.
In the case of A30U U104C, the self-cleavage turned out to be 1.31.
As to G32U U45A, the self-cleavage came out at 1.17.
Then A30U C101U, with 1.35; and G32A C101U, with 0.95; and A31U U45G, with 1.5.
With G32A A141G, the self-cleavage came out at 1.95.
Then A30U A124C, with 1.05; and A30U A136G, with 1.4.
In the case of G32C U104G it was 1.26.
Then A30C U87C, with 0.64; and U29G G35C, with 1.03; and A30G A79U, with 0.5.
As for A30G A79G, the self-cleavage worked out at 1.19.
Then G32A C51U, with 0.88.
Turning to A31U A43G, the self-cleavage was 0.9.
In the case of A31U U52A it was 1.73; in that of A31U U52C, 0.87; in that of A31G A117U, 1.
Then A31G A117G, with 1.84; and A30C A121G, with 2.42.
In the case of A30U U132C it was 1.07.
Consider A30U U132A, for which the self-cleavage was determined as 1.22.
Then A31G A43G, with 0.98.
Take G32U U134C: the self-cleavage was found to be 0.74.
In the case of A31G A141G it was 1.1.
